What all share (settings): both partners purified
For assay [1], the target named is T1, CIN85_(1-333) (human, UniProt Q96B97 1-333, 15N-labeled in the PRE experiment; unlabeled in the HSQC titration).
T1 construct: CIN85 (SH3KBP1), human, residues 1-333 with the three N-terminal SH3 domains, lacking the C-terminal coiled coil; also called monomeric CIN85; source: E. coli BL21(DE3), purified (Ni-NTA, TEV cleavage, size exclusion); not shown: His7, N-terminal, cleaved
T1 sequence (looked up): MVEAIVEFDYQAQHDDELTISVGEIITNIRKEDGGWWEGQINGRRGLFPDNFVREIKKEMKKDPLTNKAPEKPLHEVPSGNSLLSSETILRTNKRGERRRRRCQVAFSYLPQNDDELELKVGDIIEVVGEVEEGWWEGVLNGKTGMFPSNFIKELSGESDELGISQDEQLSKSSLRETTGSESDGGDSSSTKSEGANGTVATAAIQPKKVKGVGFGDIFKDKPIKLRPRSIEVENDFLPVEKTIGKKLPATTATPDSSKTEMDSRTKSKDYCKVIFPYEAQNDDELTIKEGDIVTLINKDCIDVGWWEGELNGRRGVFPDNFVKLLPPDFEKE
Kind of assay: NMR titration; 15N-HSQC of 60 µM 15N-labeled SLP65_(1-330) titrated with increasing amounts of unlabeled CIN85_(1-333); 293 K; 20 mM HEPES pH 7.2, 100 mM NaCl, 1 mM TCEP, 0.5 mM Pefabloc.

For the next assay, the target named is T2, CIN85Δ57 (human, UniProt Q96B97 1-665, deletion of residues 369-425).
T2 construct: CIN85 (SH3KBP1), human, amplified with primers from the start ATG to the stop codon, residues 369-425 deleted; The tag and its cleavage follow only from 'Protein expression and purification was performed as described above'; also called trimeric CIN85Δ57; source: E. coli, modified pET28a vector, purified as the other constructs; not shown: His7, N-terminal, cleaved
Kind of assay: NMR titration; 15N-HSQC of 15 µM 15N-labeled SLP65_(1-330) with CIN85Δ57 added, without or with SUVs (phase-separated samples); peak intensity ratio over SLP65 only; 293 K; 20 mM HEPES pH 7.2, 100 mM NaCl, 1 mM TCEP.

Assay [2] has as its target T1, CIN85_(1-333). Nature of the assay: NMR paramagnetic relaxation enhancement (1H R2-PRE); 15N-labeled CIN85_(1-333) mixed with MTSL-tagged SLP65 constructs at 10:1 molar ratio; TROSY with two-point delay; constructs without MTSL with 1 mM TCEP as diamagnetic reference; 293 K.

B1: SLP65_(1-330) (domain or fragment, human, UniProt Q8WV28 1-330, looked up)
chain: MDKLNKITVPASQKLRQLQKMVHDIKNNEGGIMNKIKKLKVKAPPSVPRRDYASESPADEEEQWSDDFDSDYENPDEHSDSEMYVMPAEENADDSYEPPPVEQETRPVHPALPFARGEYIDNRSSQRHSPPFSKTLPSKPSWPSEKARLTSTLPALTALQKPQVPPKPKGLLEDEADYVVPVEDNDENYIHPTESSSPPPEKAPMVNRSTKPNSSTPASPPGTASGRNSGAWETKSPPPAAPSPLPRAGKKPTTPLKTTPVASQQNASSVCEEKPIPAERHRGSSHRQEAVQSPVFPPAQKQIHQKPIPLPRFTEGGNPTVDGPLPSFSS
modifications: 15N-labeled
notes: SLP65 (BLNK), human, residues 1-330 (without the C-terminal SH2 domain); also called BLNK; Src homology (SH) 2 domain-containing leukocyte protein of 65 kDa; source: E. coli BL21(DE3), purified (Ni-NTA, TEV cleavage, size exclusion); not shown: His7, N-terminal, cleaved
Regarding B1, the binding result with CIN85_(1-333) [1] and with CIN85Δ57 was “binds” throughout.

B2: SLP65_(40-330), MTSL-tagged at C271 (domain or fragment, human, UniProt Q8WV28 40-330, looked up)
chain: KVKAPPSVPRRDYASESPADEEEQWSDDFDSDYENPDEHSDSEMYVMPAEENADDSYEPPPVEQETRPVHPALPFARGEYIDNRSSQRHSPPFSKTLPSKPSWPSEKARLTSTLPALTALQKPQVPPKPKGLLEDEADYVVPVEDNDENYIHPTESSSPPPEKAPMVNRSTKPNSSTPASPPGTASGRNSGAWETKSPPPAAPSPLPRAGKKPTTPLKTTPVASQQNASSVCEEKPIPAERHRGSSHRQEAVQSPVFPPAQKQIHQKPIPLPRFTEGGNPTVDGPLPSFSS
modifications: nitroxide spin label MTSL on C271
notes: SLP65 (BLNK), human, residues 40-330, naturally contains a single cysteine (C271); also called MTSL-tagged SLP65 constructs; source: E. coli BL21(DE3), purified (Ni-NTA, TEV cleavage, size exclusion); not shown: His7, N-terminal, cleaved
Take B2: the binding result in the assay with CIN85_(1-333) [2] is on record as “binds”.

B3: SLP65_(40-330) (C271A, S236C), MTSL-tagged (domain or fragment, human, UniProt Q8WV28 40-330, looked up)
chain: KVKAPPSVPRRDYASESPADEEEQWSDDFDSDYENPDEHSDSEMYVMPAEENADDSYEPPPVEQETRPVHPALPFARGEYIDNRSSQRHSPPFSKTLPSKPSWPSEKARLTSTLPALTALQKPQVPPKPKGLLEDEADYVVPVEDNDENYIHPTESSSPPPEKAPMVNRSTKPNSSTPASPPGTASGRNSGAWETKCPPPAAPSPLPRAGKKPTTPLKTTPVASQQNASSVAEEKPIPAERHRGSSHRQEAVQSPVFPPAQKQIHQKPIPLPRFTEGGNPTVDGPLPSFSS
modifications: nitroxide spin label MTSL on the single cysteine (S236C)
notes: SLP65 (BLNK), human, residues 40-330; also called MTSL-tagged SLP65 constructs; source: E. coli BL21(DE3), purified (Ni-NTA, TEV cleavage, size exclusion); not shown: His7, N-terminal, cleaved
B3: the binding result with CIN85_(1-333) [2] is recorded as “binds”.

B4: SLP65_(40-330) (C271A, Q302C), MTSL-tagged (domain or fragment, human, UniProt Q8WV28 40-330, looked up)
chain: KVKAPPSVPRRDYASESPADEEEQWSDDFDSDYENPDEHSDSEMYVMPAEENADDSYEPPPVEQETRPVHPALPFARGEYIDNRSSQRHSPPFSKTLPSKPSWPSEKARLTSTLPALTALQKPQVPPKPKGLLEDEADYVVPVEDNDENYIHPTESSSPPPEKAPMVNRSTKPNSSTPASPPGTASGRNSGAWETKSPPPAAPSPLPRAGKKPTTPLKTTPVASQQNASSVAEEKPIPAERHRGSSHRQEAVQSPVFPPAQKCIHQKPIPLPRFTEGGNPTVDGPLPSFSS
modifications: nitroxide spin label MTSL on the single cysteine (Q302C)
notes: as for B3
For B4, the binding result with CIN85_(1-333) [2] is given as “binds”.

B5: SLP65_(40-330) (C271A, S141C), MTSL-tagged (domain or fragment, human, UniProt Q8WV28 40-330, looked up)
chain: KVKAPPSVPRRDYASESPADEEEQWSDDFDSDYENPDEHSDSEMYVMPAEENADDSYEPPPVEQETRPVHPALPFARGEYIDNRSSQRHSPPFSKTLPSKPCWPSEKARLTSTLPALTALQKPQVPPKPKGLLEDEADYVVPVEDNDENYIHPTESSSPPPEKAPMVNRSTKPNSSTPASPPGTASGRNSGAWETKSPPPAAPSPLPRAGKKPTTPLKTTPVASQQNASSVAEEKPIPAERHRGSSHRQEAVQSPVFPPAQKQIHQKPIPLPRFTEGGNPTVDGPLPSFSS
modifications: nitroxide spin label MTSL on the single cysteine (S141C)
notes: as for B3
For the molecule B5, the binding result with CIN85_(1-333) [2] is listed as “binds”.

These data come from PMC7016142, “Tripartite phase separation of two signal effectors with vesicles priming B cell responsiveness” (Nature Communications, 2020).
